Laboratory results as given in article PMC2930196.

Molecular target: Phospholipid transfer protein (PLTP) in human plasma (human (endogenous in plasma)) (UniProt P55058)
Assay: co-IP

Chain of UniProt P55058 (P55058 18-493): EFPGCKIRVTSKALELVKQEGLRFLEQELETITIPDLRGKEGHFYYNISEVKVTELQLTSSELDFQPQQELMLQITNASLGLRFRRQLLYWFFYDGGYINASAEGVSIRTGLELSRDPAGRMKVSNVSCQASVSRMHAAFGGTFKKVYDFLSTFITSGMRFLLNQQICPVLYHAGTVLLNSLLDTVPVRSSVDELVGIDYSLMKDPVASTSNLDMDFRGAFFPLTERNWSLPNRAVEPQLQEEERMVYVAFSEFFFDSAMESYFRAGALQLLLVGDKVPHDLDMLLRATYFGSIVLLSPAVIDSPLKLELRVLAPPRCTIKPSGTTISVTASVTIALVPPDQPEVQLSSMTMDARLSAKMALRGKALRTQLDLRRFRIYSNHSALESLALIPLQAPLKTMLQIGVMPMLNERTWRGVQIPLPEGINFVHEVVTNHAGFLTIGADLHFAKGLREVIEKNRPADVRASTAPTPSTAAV

Clusterin (apoJ) in human plasma (natural protein)
molar ratio of clusterin, PLTP and apoA-I in the isolated PLTP complexes (ELISA): 5
